Test results: patent US7727950B2, “Methods and reagents for assaying protein kinase activity” (The University of Dundee, priority 2002, dated 2010)

Substrate: CC(C)C[C@H](NC(=O)[C@@H](NC(=O)[C@H](CCCNC(=N)N)NC(=O)[C@H](C)NC(=O)[C@@H](N)CCCNC(=N)N)[C@@H](C)O)C(=O)N[C@@H](CO)C(=O)N[C@@H](Cc1ccccc1)C(=O)N[C@@H](C)C(=O)N[C@@H](CCC(=O)O)C(=O)N1CCC[C@H]1C(=O)NCC(=O)O
Test: Kinetic parameters for peptide phosphorylation, radioactive filter-binding assay
Assay type: biochemical, human
Conditions: other: MAPKAP-K3; Standard Substrate = …; 30.0 °C
From the text: Apart from the AMP-activated protein kinase (AMPK, a gift from Drs S. Hawley and D. G. Hardie), cGMP-dependent protein kinase (PKG, a generous gift from Drs Susan Lohmann and Ulrich Walter, University of Wurzburg, Germany) and the catalytic subunit of cyclic AMP-dependent protein kinase (PKA, a gift from Dr C. Smythe), which were isolated from rat liver, bovine lung and bovine heart, respectively, all other protein kinases were expressed as either GST-fusion or His-tagged proteins (by a person, a person, Dr A. Paterson or a person, in this Division). The expressed proteins all corresponded to the human sequences apart from the rat Rho-dependent protein kinase (ROCK-II) and rat mitogen-activated protein kinase (MAPK) activated kinase-1a (MAPKAP-K1a, also called RSK). […]
All protein kinase assays were linear with respect to time. […] All papers were subsequently washed a further three times in phosphoric acid, once in acetone, then dried and counted for radioactivity. […] The plates were then washed six times (five min per wash) in PBS, 0.1% Tween 20 and binding of the phospho-specific antibody detected by incubating the plates with peroxidase-conjugated anti-sheep antibodies (Pierce). […] Signals were quantitated on LAS-1000IR software (FujiFilm). […]

B1: MAPKAP-K3 (Homo sapiens) (protein)
chain: MDGETAEEQGGPVPPPVAPGGPGLGGAPGGRREPKKYAVTDDYQLSKQVLGLGVNGKVLECFHRRTGQKCALKLLYDSPKARQEVDHHWQASGGPHIVCILDVYENMHHGKRCLLIIMECMEGGELFSRIQERGDQAFTEREAAEIMRDIGTAIQFLHSHNIAHRDVKPENLLYTSKEKDAVLKLTDFGFAKETTQNALQTPCYTPYYVAPEVLGPEKYDKSCDMWSLGVIMYILLCGFPPFYSNTGQAISPGMKRRIRLGQYGFPNPEWSEVSEDAKQLIRLLLKTDPTERLTITQFMNHPWINQSMVVPQTPLHTARVLQEDKDHWDEVKEEMTSALATMRVDYDQVKIKDLKTSNNRLLNKRRKKQAGSSSASQGCNNQ
notes: GST; made in house; host or cells: E. coli
  Km: 30 µM
